To fix the notation:
T1: EsCas13d, nuclease-dead (Eubacterium siraeum, UniProt B0MS50, R295A;H300A;R849A;H854A)
T1 sequence: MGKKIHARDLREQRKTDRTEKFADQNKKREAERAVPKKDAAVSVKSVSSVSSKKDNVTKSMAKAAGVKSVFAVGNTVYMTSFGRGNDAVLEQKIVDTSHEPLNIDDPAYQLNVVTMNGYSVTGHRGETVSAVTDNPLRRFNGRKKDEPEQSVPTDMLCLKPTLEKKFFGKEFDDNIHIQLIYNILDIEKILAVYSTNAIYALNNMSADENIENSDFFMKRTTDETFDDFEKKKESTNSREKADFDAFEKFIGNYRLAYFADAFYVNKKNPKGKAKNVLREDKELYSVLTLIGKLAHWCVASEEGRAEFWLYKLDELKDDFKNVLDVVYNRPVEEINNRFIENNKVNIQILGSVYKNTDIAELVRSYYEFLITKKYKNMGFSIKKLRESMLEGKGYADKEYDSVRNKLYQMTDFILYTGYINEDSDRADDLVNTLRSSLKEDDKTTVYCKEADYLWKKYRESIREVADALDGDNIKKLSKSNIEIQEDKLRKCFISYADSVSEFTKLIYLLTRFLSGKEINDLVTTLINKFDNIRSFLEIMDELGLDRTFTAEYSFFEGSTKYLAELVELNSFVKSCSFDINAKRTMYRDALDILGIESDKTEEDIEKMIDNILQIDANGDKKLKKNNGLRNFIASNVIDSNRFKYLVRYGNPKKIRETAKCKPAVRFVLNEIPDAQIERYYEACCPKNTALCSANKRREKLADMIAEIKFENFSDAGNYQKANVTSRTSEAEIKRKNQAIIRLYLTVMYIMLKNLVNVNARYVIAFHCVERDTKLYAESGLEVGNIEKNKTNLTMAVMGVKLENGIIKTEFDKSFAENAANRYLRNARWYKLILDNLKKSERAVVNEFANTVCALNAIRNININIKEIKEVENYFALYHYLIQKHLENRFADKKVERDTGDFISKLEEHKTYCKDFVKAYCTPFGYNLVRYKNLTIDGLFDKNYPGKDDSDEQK

B1: target 1 insC 3' of 20,insU 3' of 9 (mixed)
RNA 1: CACCCGUGCAAAAAUGCAGGGGUCUAAAACUGAGCGGAUAACCUCUCUAUGG
RNA 2: GGGAAUGGAUCCACAUCUACGAAUUCGUACCACUAGAGAGGUUAUUCCGCUCACCGAGAUCGGAAGAGCACACGU
B2: target 1 insA 3' of 17,insG 3' of 4 (mixed)
RNA 1: CACCCGUGCAAAAAUGCAGGGGUCUAAAACUGAGCGGAUAACCUCUCUAUGG
RNA 2: GGGAAUGGAUCCACAUCUACGAAUUCGUACCAUAGAAGAGGUUAUCCGCGUCACCGAGAUCGGAAGAGCACACGU
B3: target 3 U2C,G4A (mixed)
RNA 1: CACCCGUGCAAAAUUGCAGGGGUCUAAAACGACCUGAAUAUUUCAGAUCAAA
RNA 2: GGGAAUGGAUCCACAUCUACGAAUUCGUUUUUGAUCUGAAAUAUUCAAGCCUGCAGAUCGGAAGAGCACACGU
B4: target 3 insU 3' of 6,insC 3' of 5 (mixed)
RNA 1: CACCCGUGCAAAAUUGCAGGGGUCUAAAACGACCUGAAUAUUUCAGAUCAAA
RNA 2: GGGAAUGGAUCCACAUCUACGAAUUCGUUUUUGAUCUGAAAUAUUCUACGGUCUGCAGAUCGGAAGAGCACACGU
B5: target 3 U2G,U10A (mixed)
RNA 1: CACCCGUGCAAAAUUGCAGGGGUCUAAAACGACCUGAAUAUUUCAGAUCAAA
RNA 2: GGGAAUGGAUCCACAUCUACGAAUUCGUUUUUGAUCUGAAAAAUUCAGGGCUGCAGAUCGGAAGAGCACACGU
B6: target 3 insU 3' of 14,insG 3' of 2 (mixed)
RNA 1: CACCCGUGCAAAAUUGCAGGGGUCUAAAACGACCUGAAUAUUUCAGAUCAAA
RNA 2: GGGAAUGGAUCCACAUCUACGAAUUCGUUUUUGAUCUGUAAAUAUUCAGGUGCUGCAGAUCGGAAGAGCACACGU
B7: target 3 C1U,U8G (mixed)
RNA 1: CACCCGUGCAAAAUUGCAGGGGUCUAAAACGACCUGAAUAUUUCAGAUCAAA
RNA 2: GGGAAUGGAUCCACAUCUACGAAUUCGUUUUUGAUCUGAAAUAGUCAGGUUUGCAGAUCGGAAGAGCACACGU
B8: target 3 G3C,C6A (mixed)
RNA 1: CACCCGUGCAAAAUUGCAGGGGUCUAAAACGACCUGAAUAUUUCAGAUCAAA
RNA 2: GGGAAUGGAUCCACAUCUACGAAUUCGUUUUUGAUCUGAAAUAUUAAGCUCUGCAGAUCGGAAGAGCACACGU
B9: target 3 C1G,G3U (mixed)
RNA 1: CACCCGUGCAAAAUUGCAGGGGUCUAAAACGACCUGAAUAUUUCAGAUCAAA
RNA 2: GGGAAUGGAUCCACAUCUACGAAUUCGUUUUUGAUCUGAAAUAUUCAGUUGUGCAGAUCGGAAGAGCACACGU
B10: target 3 insG 3' of 18,insU 3' of 1 (mixed)
RNA 1: CACCCGUGCAAAAUUGCAGGGGUCUAAAACGACCUGAAUAUUUCAGAUCAAA
RNA 2: GGGAAUGGAUCCACAUCUACGAAUUCGUUUUUGAGUCUGAAAUAUUCAGGUCUUGCAGAUCGGAAGAGCACACGU
B11: target 3 G4U,U22G (mixed)
RNA 1: CACCCGUGCAAAAUUGCAGGGGUCUAAAACGACCUGAAUAUUUCAGAUCAAA
RNA 2: GGGAAUGGAUCCACAUCUACGAAUUCGUUGUUGAUCUGAAAUAUUCAUGUCUGCAGAUCGGAAGAGCACACGU
B12: target 3 C1U,A5C (mixed)
RNA 1: CACCCGUGCAAAAUUGCAGGGGUCUAAAACGACCUGAAUAUUUCAGAUCAAA
RNA 2: GGGAAUGGAUCCACAUCUACGAAUUCGUUUUUGAUCUGAAAUAUUCCGGUUUGCAGAUCGGAAGAGCACACGU
B13: target 3 G3C,A5G (mixed)
RNA 1: CACCCGUGCAAAAUUGCAGGGGUCUAAAACGACCUGAAUAUUUCAGAUCAAA
RNA 2: GGGAAUGGAUCCACAUCUACGAAUUCGUUUUUGAUCUGAAAUAUUCGGCUCUGCAGAUCGGAAGAGCACACGU
B14: target 3 A18G,U21C (mixed)
RNA 1: CACCCGUGCAAAAUUGCAGGGGUCUAAAACGACCUGAAUAUUUCAGAUCAAA
RNA 2: GGGAAUGGAUCCACAUCUACGAAUUCGUUUCUGGUCUGAAAUAUUCAGGUCUGCAGAUCGGAAGAGCACACGU
B15: target 3 insA 3' of 21,insG 3' of 6 (mixed)
RNA 1: CACCCGUGCAAAAUUGCAGGGGUCUAAAACGACCUGAAUAUUUCAGAUCAAA
RNA 2: GGGAAUGGAUCCACAUCUACGAAUUCGUUUUAUGAUCUGAAAUAUUCGAGGUCUGCAGAUCGGAAGAGCACACGU
B16: target 3 del2,del22 (mixed)
RNA 1: CACCCGUGCAAAAUUGCAGGGGUCUAAAACGACCUGAAUAUUUCAGAUCAAA
RNA 2: GGGAAUGGAUCCACAUCUACGAAUUCGUUUUGAUCUGAAAUAUUCAGGCUGCAGAUCGGAAGAGCACACGU
B17: target 3 insU 3' of 5,insC 3' of 5 (mixed)
RNA 1: CACCCGUGCAAAAUUGCAGGGGUCUAAAACGACCUGAAUAUUUCAGAUCAAA
RNA 2: GGGAAUGGAUCCACAUCUACGAAUUCGUUUUUGAUCUGAAAUAUUCAUCGGUCUGCAGAUCGGAAGAGCACACGU
B18: target 3 insA 3' of 6,insG 3' of 2 (mixed)
RNA 1: CACCCGUGCAAAAUUGCAGGGGUCUAAAACGACCUGAAUAUUUCAGAUCAAA
RNA 2: GGGAAUGGAUCCACAUCUACGAAUUCGUUUUUGAUCUGAAAUAUUCAAGGUGCUGCAGAUCGGAAGAGCACACGU
B19: target 3 insG 3' of 9,insA 3' of 3 (mixed)
RNA 1: CACCCGUGCAAAAUUGCAGGGGUCUAAAACGACCUGAAUAUUUCAGAUCAAA
RNA 2: GGGAAUGGAUCCACAUCUACGAAUUCGUUUUUGAUCUGAAAUAGUUCAGGAUCUGCAGAUCGGAAGAGCACACGU
B20: target 3 insA 3' of 7,insA 3' of 7 (mixed)
RNA 1: CACCCGUGCAAAAUUGCAGGGGUCUAAAACGACCUGAAUAUUUCAGAUCAAA
RNA 2: GGGAAUGGAUCCACAUCUACGAAUUCGUUUUUGAUCUGAAAUAUUAACAGGUCUGCAGAUCGGAAGAGCACACGU
B21: target 3 G4A,U8A (mixed)
RNA 1: CACCCGUGCAAAAUUGCAGGGGUCUAAAACGACCUGAAUAUUUCAGAUCAAA
RNA 2: GGGAAUGGAUCCACAUCUACGAAUUCGUUUUUGAUCUGAAAUAAUCAAGUCUGCAGAUCGGAAGAGCACACGU
B22: target 3 del2,del4 (mixed)
RNA 1: CACCCGUGCAAAAUUGCAGGGGUCUAAAACGACCUGAAUAUUUCAGAUCAAA
RNA 2: GGGAAUGGAUCCACAUCUACGAAUUCGUUUUUGAUCUGAAAUAUUCAGCUGCAGAUCGGAAGAGCACACGU
B23: target 3 U20C (mixed)
RNA 1: CACCCGUGCAAAAUUGCAGGGGUCUAAAACGACCUGAAUAUUUCAGAUCAAA
RNA 2: GGGAAUGGAUCCACAUCUACGAAUUCGUUUUCGAUCUGAAAUAUUCAGGUCUGCAGAUCGGAAGAGCACACGU
B24: target 3 insA 3' of 8,insC 3' of 3 (mixed)
RNA 1: CACCCGUGCAAAAUUGCAGGGGUCUAAAACGACCUGAAUAUUUCAGAUCAAA
RNA 2: GGGAAUGGAUCCACAUCUACGAAUUCGUUUUUGAUCUGAAAUAUAUCAGGCUCUGCAGAUCGGAAGAGCACACGU
B25: target 3 insC 3' of 22,insA 3' of 6 (mixed)
RNA 1: CACCCGUGCAAAAUUGCAGGGGUCUAAAACGACCUGAAUAUUUCAGAUCAAA
RNA 2: GGGAAUGGAUCCACAUCUACGAAUUCGUUUCUUGAUCUGAAAUAUUCAAGGUCUGCAGAUCGGAAGAGCACACGU
B26: target 3 insG 3' of 7,insG 3' of 7 (mixed)
RNA 1: CACCCGUGCAAAAUUGCAGGGGUCUAAAACGACCUGAAUAUUUCAGAUCAAA
RNA 2: GGGAAUGGAUCCACAUCUACGAAUUCGUUUUUGAUCUGAAAUAUUGGCAGGUCUGCAGAUCGGAAGAGCACACGU
B27: target 3 insA 3' of 2,insG 3' of 2 (mixed)
RNA 1: CACCCGUGCAAAAUUGCAGGGGUCUAAAACGACCUGAAUAUUUCAGAUCAAA
RNA 2: GGGAAUGGAUCCACAUCUACGAAUUCGUUUUUGAUCUGAAAUAUUCAGGUAGCUGCAGAUCGGAAGAGCACACGU

The target of this data set is T1, EsCas13d, nuclease-dead. The data set can be described thus: crRNA (strand 1, pre-loaded); Mg2+; 40 mM Tris-HCl pH 7.5, 150 mM NaCl, 6 mM MgCl2, 1 mM DTT, 0.1% Tween-20, 0.2 mg/ml BSA; 25 C; 10 min per concentration, then washed. The following applies: tags: His6-TwinStrep-SUMO cleaved; N-terminal SNAP kept (SNAP-Surface 488); label: 3' end held by stalled T7 RNA polymerase.
As usually defined, the Kd is the concentration at which binding is half-saturated. A low value points to tighter binding. Turning to B1, the Kd turned out to be 8 ± 0.9 nM.

As to B2, the Kd came to 10.2 ± 0.4 nM.

B3 showed a Kd of 16.9 ± 2.45 nM.

Molecule B4 yielded a Kd of 15.4 ± 1.45 nM.

For the molecule B5, the dissociation constant Kd was 63 ± 16 nM.

Turning to B6, binding was characterised by a dissociation constant (Kd) of 33.5 ± 11 nM.

For the molecule B7, the Kd turned out to be 64.5 ± 16.5 nM.

For B8, the affinity, expressed as Kd, was 27 ± 2 nM.

For B9, binding was put at a Kd of 18.6 ± 3.35 nM.

The molecule B10 gave a Kd of 82.5 ± 17 nM.

B11 displayed an equilibrium dissociation constant (Kd) of 37 ± 6 nM.

The molecule B12 returned a Kd of 60.5 ± 9.5 nM.

B13 had a Kd of 16.1 ± 1.4 nM.

The molecule B14 returned a Kd of 75 ± 26 nM.

In the case of B15, the equilibrium dissociation constant (Kd) is 48.5 ± 6.5 nM.

In turn, B16 showed a dissociation constant Kd of 5.25 ± 0.7 nM.

The molecule B17 returned an equilibrium dissociation constant (Kd) of 6.59 ± 0.54 nM.

In the case of B18, binding was characterised by a dissociation constant (Kd) of 4.05 ± 0.6 nM.

For the molecule B19, the dissociation constant (Kd) came out at 55.5 ± 12.5 nM.

B20: the affinity, expressed as Kd, was 38 ± 5.5 nM.

With B21, binding was characterised by a dissociation constant (Kd) of 76.5 ± 9.5 nM.

Take B22: the dissociation constant Kd came to 36.9 ± 5.2 nM.

In turn, B23 showed a dissociation constant (Kd) of 62.5 ± 18 nM.

B24 registered a Kd of 43 ± 7 nM.

As for B25, binding was characterised by a dissociation constant (Kd) of 14.8 ± 1.95 nM.

With B26, the dissociation constant (Kd) stood at 41.5 ± 5.5 nM.

As to B27, the Kd stood at 20.9 ± 2.15 nM.

For the origin of these results see paper PMC10786891, “Massively parallel profiling of RNA-targeting CRISPR-Cas13d”.
